Laboratory results taken from patent US20240158474A1 (SINO BIOLOGICAL, published 2024).

Assays:
HPV33 VLP protein = biological target: T1, HPV33 VLP protein (human papillomavirus type 33, UniProt P06416 1-499); assay: double-antibody sandwich ELISA on the mixture of 13 HPV VLPs
T1 construct: Complete VLP protein; no limits of the construct printed, whole entry named; also called HPV33L1
T1 sequence: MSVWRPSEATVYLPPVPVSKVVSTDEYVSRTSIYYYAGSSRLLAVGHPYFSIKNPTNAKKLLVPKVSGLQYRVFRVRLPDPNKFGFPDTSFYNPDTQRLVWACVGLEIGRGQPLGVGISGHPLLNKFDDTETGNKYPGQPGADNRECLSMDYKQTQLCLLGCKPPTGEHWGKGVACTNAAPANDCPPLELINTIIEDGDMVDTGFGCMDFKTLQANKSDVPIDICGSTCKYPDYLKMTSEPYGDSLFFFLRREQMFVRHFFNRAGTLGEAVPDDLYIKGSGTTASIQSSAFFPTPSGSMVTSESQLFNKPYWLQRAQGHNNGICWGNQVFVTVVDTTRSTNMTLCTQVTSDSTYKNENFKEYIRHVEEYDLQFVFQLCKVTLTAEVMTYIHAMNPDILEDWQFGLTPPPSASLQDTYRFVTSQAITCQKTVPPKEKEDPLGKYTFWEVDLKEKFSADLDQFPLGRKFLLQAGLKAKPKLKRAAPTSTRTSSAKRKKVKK

HPV51 VLP protein = biological target: T2, HPV51 VLP protein (human papillomavirus type 51, UniProt P26536 1-474); assay: as above
T2 construct: Complete VLP protein; no limits of the construct printed, whole entry named; also called HPV51L1
T2 sequence: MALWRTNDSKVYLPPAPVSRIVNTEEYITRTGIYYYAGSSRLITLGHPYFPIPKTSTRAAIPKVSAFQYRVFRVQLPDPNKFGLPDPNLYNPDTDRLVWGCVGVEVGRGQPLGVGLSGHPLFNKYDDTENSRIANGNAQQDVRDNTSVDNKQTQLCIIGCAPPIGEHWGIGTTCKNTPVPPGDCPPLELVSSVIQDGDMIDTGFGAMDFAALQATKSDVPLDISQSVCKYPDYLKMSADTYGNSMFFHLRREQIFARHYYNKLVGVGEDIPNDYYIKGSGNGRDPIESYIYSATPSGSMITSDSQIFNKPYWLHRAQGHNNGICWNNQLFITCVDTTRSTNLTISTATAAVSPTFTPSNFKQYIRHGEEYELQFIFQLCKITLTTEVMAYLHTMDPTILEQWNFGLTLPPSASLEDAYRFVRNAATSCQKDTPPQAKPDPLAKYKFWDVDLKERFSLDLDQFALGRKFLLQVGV

HPV16 VLP protein = biological target: T3, HPV16 VLP protein (human papillomavirus type 16, UniProt P03101 1-474); assay: as above
T3 construct: Complete VLP protein; no limits of the construct printed, whole entry named; also called HPV-16L1
T3 sequence: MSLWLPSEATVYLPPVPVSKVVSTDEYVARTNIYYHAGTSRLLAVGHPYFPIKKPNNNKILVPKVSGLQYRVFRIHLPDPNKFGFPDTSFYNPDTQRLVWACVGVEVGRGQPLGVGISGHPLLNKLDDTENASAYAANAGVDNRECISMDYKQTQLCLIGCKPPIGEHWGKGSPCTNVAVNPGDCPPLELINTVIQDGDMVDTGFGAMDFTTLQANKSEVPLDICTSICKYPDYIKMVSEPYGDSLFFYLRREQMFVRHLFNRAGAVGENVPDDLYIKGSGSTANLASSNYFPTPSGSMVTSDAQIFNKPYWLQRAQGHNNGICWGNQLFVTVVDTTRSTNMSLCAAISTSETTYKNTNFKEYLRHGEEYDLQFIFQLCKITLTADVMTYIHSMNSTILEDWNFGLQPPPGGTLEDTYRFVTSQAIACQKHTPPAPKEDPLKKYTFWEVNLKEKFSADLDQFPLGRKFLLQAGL

HPV52 VLP protein = biological target: T4, HPV52 VLP protein (human papillomavirus type 52, UniProt Q05138 27-504); assay: indirect ELISA on coated VLP
T4 construct: Complete VLP protein; no limits of the construct printed, whole entry named; also called P52SHELL
T4 sequence: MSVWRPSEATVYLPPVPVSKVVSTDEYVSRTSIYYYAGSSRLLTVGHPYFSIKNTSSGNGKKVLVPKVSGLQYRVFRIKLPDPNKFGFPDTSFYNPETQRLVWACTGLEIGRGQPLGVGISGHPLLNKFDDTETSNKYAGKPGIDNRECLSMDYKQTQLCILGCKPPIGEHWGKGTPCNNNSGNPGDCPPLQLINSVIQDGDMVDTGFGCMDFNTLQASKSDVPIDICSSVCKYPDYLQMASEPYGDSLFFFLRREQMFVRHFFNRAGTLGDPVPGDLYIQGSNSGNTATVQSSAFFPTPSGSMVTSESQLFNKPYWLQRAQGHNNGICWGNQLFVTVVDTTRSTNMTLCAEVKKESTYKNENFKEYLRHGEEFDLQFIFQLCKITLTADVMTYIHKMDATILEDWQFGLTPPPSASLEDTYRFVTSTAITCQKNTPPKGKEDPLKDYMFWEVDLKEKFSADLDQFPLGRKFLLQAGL

HPV56 VLP protein = biological target: T5, HPV56 VLP protein (human papillomavirus type 56, UniProt P36743 36-507); assay: indirect ELISA on coated VLP
T5 construct: Complete VLP protein; no limits of the construct printed, whole entry named; also called HPV56L1
T5 sequence: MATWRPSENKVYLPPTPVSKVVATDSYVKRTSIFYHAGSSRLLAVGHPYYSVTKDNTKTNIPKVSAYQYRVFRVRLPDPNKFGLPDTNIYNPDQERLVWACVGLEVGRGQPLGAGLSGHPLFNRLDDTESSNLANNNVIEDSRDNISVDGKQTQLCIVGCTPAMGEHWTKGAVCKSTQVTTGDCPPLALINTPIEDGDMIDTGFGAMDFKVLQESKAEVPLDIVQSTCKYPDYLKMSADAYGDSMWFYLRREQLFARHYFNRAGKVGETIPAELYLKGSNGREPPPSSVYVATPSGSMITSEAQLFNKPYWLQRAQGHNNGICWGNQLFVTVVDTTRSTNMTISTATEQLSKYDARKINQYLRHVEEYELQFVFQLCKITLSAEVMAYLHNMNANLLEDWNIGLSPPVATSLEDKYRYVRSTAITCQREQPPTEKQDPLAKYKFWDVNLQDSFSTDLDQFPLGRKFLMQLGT

B1: monoclonal antibody HPV6-R003 (antibody, V domains shown)
VH: QQQLEESGGGLVKPGGTLTLTCKASGIDLSNYYMCWVRQAPGKGLEWIGCIYTGSGRTYYASWAKGRFTISKASSTTVTLQMTSLTAADTATYFCARDYLGWRASNIWGPGTLVTVSS
VL: ELVMTQTPSSVSAAVGGTVTINCQASQSVYSNNLVWYQQKPGQPPKLLIYGASTLASGVPSRFKGSGSGTQFTLTISDVVCDDAATYYCGGYVSDSTDGTAFGGGTEVVVKG
notes: here built from variable plus constant region so that the signal peptides are left out; In the sandwich ELISA the same antibody is used as coating antibody and, labelled with horseradish peroxidase, as detection antibody; also called anti-HPV6 L1 protein antibody
B1: no binding (tested: mixture 50 ng/mL, each subtype 1/13) (HPV33 VLP protein); no binding (tested: mixture 50 ng/mL, each subtype 1/13) (HPV51 VLP protein); no binding (tested: mixture 50 ng/mL, each subtype 1/13) (HPV16 VLP protein). B1: no binding (tested: antibody 10 ng/mL; coating 2 µg/mL) (HPV52 VLP protein); no binding (tested: antibody 10 ng/mL; coating 2 µg/mL) (HPV56 VLP protein).
